We go through five substances from paper PMC8469834.

The term stoichiometry N denotes the number of molecules, sites or subunits per partner or assembly.

The test system of series [1] is T1, CzcR3 (Pseudomonas putida KT2440), ORF:67c4da9b.
T1 sequence: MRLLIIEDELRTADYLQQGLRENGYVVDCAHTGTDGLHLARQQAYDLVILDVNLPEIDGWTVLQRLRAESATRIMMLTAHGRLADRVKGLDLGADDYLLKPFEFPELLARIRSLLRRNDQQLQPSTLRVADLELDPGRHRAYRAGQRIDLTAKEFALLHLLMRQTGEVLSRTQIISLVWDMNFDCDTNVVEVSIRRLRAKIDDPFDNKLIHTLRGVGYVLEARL
Nature of the series: EMSA. Particulars: 10 mM Tris-HCl pH 8.0, 50 mM KCl, 5 mM MgCl2, 5% glycerol, 28 °C 20 min; EMSA 10 nM FAM probe (carbamyl phosphate with CzcR3); footprinting 40 nM probe, about …. In general terms: A gel shift assay detects complexes by their altered migration in electrophoresis.

For series [2] the test system is unchanged. Nature of the series: DNase I footprinting. The conditions noted are these: 10 mM Tris-HCl pH 8.0, 50 mM KCl, 5 mM MgCl2, 5% glycerol, 28 °C 20 min; EMSA 10 nM FAM probe (carbamyl phosphate with CzcR3); footprinting 40 nM probe, about ….
Series [3] deals with T2, CadR (Pseudomonas putida KT2440), ORF:5b9d404e.
T2 sequence: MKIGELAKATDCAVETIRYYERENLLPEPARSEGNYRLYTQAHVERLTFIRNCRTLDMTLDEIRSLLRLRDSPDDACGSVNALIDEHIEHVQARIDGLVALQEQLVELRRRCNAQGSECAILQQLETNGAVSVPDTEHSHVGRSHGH
In words: EMSA. Particulars: 10 mM Tris-HCl pH 8.0, 50 mM KCl, 5 mM MgCl2, 5% glycerol, 28 °C 20 min; EMSA 10 nM FAM probe (carbamyl phosphate with CzcR3); footprinting 40 nM probe, about ….

Series [4] has the same test system. In words: DNase I footprinting. Particulars: 10 mM Tris-HCl pH 8.0, 50 mM KCl, 5 mM MgCl2, 5% glycerol, 28 °C 20 min; EMSA 10 nM FAM probe (carbamyl phosphate with CzcR3); footprinting 40 nM probe, about ….
The target in series [5] is CzcR3, the response regulator of two-component system CzcRS3 (Pseudomonas putida KT2440) (UniProt F6KX51). In words: electrophoresis analysis; purified His-tagged CzcR3 alone, in vitro; kind of gel and conditions not told in the text (Figure S1).

With “GTATCGAAATCATCGTGTCGGGTTGGGTTTCCCAGTATTTACGGGCATTACAAAGCTTTCTTACGAAATTGTAATTTTCTAGCCACCCCTCTGATAGCTACCGCTCATTAGAGTGCCATCACCTAATCAAGTGGGGCTTGGCAGCTGTTTCGGCGTTCTCGCCAAGCTTTATCGAAGTTTGTGCACGAGGACCATCAAAGTGCCCCGGTATAACCGCA (double strand) [czcC1 (czcCBA1) promoter probe]”, the binding entry in series [1] and in series [2] was “binds” each time.

Turning to “TGTAAAACGACGGCCAGTTACAGGCGCGGGTTTACTCGCGAAGAGGCCCGAACAGACAGCCAGATAACAGCAGAATTACAAATCCGTTATCTGCACCGCAGGCCTTTTTTCATGCCGTAACATTGGGGCGCTTGACAAAGATGTCACTACAAAGTCAAGAATCGTCCCCTTTCAACATACCGAGCCCCCCATG (double strand) [czcRS3 (czcR3) promoter probe, mutated CadR site]”, in series [3], the binding result is listed as “no binding”.

Consider “TGTAAAACGACGGCCAGTTACAGGCGCGGGTTTACTCGCGAAGAGGCCCGAACAGACAGCCAGATAACAGCAGAATTACAAATCCGTTATCTGCACCGCAGGCCTTTTTTCATGCCGTAACATTGGGGCGCTTGACCCTGATGTCACTACAGGGTCAAGAATCGTCCCCTTTCAACATACCGAGCCCCCCATG (double strand) [czcRS3 (czcR3) promoter probe, native]”, for which the binding result in series [3], in series [1], in series [4] and in series [2] was “binds” in each case.

With “GATTATCGAACTTATTGGGCGTTGACTGTCCTGTACCCAGCCGTGCAAAGCTGCTTCTGCAACGAACCGCAGTGCGTCATTACAAAATTGTAATCTTGCCGCCACCGCCCCGATAACCAGCCCTTTCTACAGTCCCTGGCCAATGCT (double strand) [czcC2 (czcCBA2) promoter probe]”, the binding result in series [1] and in series [2] was “binds” throughout.

In series [5], “CzcR3, the response regulator of two-component system CzcRS3 (from UniProt F6KX51 1-224) (natural protein)” displayed a stoichiometry N of 2.
